Data reported in patent publication US20210340207A1 (Merck Sharp & Dohme, published 2021).
*1 amine or outer side, *2 acyl side, *3 side chain or, on linkers, in order; H or OH if unused. Side-chain parts run from the residue outwards. [ ]: non-standard residue; d: D form. pAMF = para-azidomethylphenylalanine, [N-]=[N+]=NCc1ccc(C[C@H](N[*:1])C(=O)[*:2])cc1

Key:
[1] = target: T1, Cynomolgus/Rhesus IL-2Rβ, His tag (Table 10) (cynomolgus monkey / rhesus monkey, UniProt Q38J85 27-240); test: SPR (Biacore T200)
T1 sequence: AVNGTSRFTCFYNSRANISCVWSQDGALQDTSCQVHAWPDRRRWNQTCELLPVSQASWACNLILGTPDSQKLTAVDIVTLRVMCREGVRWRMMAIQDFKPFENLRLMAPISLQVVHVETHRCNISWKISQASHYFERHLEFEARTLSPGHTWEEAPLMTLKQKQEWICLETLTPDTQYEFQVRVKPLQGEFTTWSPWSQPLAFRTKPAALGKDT
Procedure: (§1) A Surface Plasmon Resonance (SPR) assay on a Biacore T200 (GE Healthcare) instrument was used to determine the monovalent affinities of pegylated aldesleukin variants against polyhistidine-tagged or Fc-tagged IL-2 Receptors. Biacore T200 Evaluation Software was used to fit each titration series to a 1:1 binding model or steady state affinity. The association (kₒₙ, M⁻¹ s⁻¹) and dissociation (koff, s⁻¹) rate constants were determined for each set of titrations and used to calculate the dissociation constant, KD=koff/kₒₙ, of each sample against each receptor. koff/kₒₙ values are not reported herein.

[2] = target: T2, Human IL-2Rβ, His tag (Table 10) (human, UniProt P14784 27-239, limits assumed); test: SPR (Biacore T200)
T2 construct: not shown: polyhistidine tag
T2 sequence (looked up): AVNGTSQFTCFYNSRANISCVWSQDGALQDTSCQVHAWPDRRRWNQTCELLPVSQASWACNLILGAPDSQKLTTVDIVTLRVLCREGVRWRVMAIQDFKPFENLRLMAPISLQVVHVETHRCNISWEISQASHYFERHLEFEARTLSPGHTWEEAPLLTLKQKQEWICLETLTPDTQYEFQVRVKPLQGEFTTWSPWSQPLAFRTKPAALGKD
Procedure: as §1

[3] = target: T1, Cynomolgus/Rhesus IL-2Rβ, His tag …; test: SPR (Biacore T200), receptor captured on anti-histidine surface
Procedure: as §1
(§2) To measure the affinity of CON1 and aldesleukin for IL-2R subunits, receptors were captured on either an anti-histidine or anti-hu Fc antibody surface. […] CON1 has a six-fold lower affinity for Human and Cynomolgus/Rhesus IL-2-Rβ than aldesleukin.

[4] = target: T2, Human IL-2Rβ, His tag (Table 10); test: as above
Procedure: as §1, §2

[5] = target: T3, human IL-2Rαβγc (on Kit225-STAT5 reporter cells, NK-92 cells, primary Treg cells) (human, UniProt P01589 22-272; P14784 27-551; P31785 23-369); test: cell-based or functional assay
T3 sequence (looked up) 1: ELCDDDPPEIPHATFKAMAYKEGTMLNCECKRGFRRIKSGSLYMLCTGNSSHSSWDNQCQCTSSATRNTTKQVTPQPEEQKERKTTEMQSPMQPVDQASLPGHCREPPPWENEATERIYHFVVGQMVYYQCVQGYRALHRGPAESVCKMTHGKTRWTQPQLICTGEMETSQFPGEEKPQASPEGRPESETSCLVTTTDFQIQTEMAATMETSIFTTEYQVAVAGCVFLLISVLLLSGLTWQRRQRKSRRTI
T3 sequence (looked up) 2: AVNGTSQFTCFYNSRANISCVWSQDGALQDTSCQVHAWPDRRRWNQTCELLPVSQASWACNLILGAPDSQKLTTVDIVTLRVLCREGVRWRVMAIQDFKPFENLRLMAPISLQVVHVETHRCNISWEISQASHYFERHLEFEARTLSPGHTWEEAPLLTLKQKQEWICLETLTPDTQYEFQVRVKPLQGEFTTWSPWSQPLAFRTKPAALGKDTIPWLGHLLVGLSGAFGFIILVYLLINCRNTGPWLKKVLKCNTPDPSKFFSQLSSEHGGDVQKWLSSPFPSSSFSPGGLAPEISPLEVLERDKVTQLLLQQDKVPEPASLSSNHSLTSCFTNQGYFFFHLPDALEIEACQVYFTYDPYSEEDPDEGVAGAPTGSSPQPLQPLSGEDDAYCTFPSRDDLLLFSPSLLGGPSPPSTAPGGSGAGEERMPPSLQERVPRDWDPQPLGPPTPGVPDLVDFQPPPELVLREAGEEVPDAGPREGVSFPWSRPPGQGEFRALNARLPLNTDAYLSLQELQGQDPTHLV
T3 sequence (looked up) 3: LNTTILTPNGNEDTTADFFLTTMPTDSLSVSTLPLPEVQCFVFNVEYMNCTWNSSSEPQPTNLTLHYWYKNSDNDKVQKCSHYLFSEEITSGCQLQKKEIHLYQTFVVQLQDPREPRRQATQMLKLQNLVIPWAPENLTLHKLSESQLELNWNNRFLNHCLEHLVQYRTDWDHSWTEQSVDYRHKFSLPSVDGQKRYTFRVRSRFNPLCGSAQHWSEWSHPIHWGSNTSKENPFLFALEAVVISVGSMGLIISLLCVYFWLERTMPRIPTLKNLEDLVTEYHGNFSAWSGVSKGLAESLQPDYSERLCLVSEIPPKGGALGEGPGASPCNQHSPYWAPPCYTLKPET

[6] = target: T4, human IL-2Rβγc (on DERL-7 cells, U2OS IL2RB/IL2RG cells, CD25 knockout Kit225-STAT5 cells, primary CD8+ CTLs) (human, UniProt P14784 27-551; P31785 23-369); test: cell-based or functional assay
T4 sequence (looked up) 1: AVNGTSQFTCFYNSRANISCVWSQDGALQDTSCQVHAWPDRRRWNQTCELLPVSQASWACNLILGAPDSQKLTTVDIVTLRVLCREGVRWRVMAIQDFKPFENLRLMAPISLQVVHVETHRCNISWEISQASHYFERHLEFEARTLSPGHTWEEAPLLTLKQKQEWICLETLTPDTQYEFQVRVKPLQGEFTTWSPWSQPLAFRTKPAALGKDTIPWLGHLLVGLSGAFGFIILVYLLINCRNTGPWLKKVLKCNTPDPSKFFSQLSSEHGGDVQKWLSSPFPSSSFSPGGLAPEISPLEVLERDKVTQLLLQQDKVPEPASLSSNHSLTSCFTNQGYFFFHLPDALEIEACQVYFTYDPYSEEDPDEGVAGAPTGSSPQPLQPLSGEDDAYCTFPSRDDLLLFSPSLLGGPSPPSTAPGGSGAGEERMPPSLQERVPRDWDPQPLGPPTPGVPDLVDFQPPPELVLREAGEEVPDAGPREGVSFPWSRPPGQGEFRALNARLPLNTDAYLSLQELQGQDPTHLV
T4 sequence (looked up) 2: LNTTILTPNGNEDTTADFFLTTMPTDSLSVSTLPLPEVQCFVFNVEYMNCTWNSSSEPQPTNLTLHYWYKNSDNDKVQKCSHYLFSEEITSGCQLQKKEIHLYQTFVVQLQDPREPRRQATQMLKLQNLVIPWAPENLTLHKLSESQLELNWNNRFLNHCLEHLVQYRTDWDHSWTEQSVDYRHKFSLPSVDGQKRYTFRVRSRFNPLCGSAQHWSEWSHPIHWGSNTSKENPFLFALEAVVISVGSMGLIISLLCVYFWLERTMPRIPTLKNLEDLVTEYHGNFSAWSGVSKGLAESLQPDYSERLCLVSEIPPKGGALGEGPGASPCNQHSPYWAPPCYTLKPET

[7] = target: T3, human IL-2Rαβγc (on Kit225-STAT5 …); test: cell-based or functional assay; remark: listed apart in the source
[8] = target: T4, human IL-2Rβγc (on DERL-7 cells, U2OS …); test: cell-based or functional assay; remark: listed apart in the source

B1: Ald_S4pAMF(PEG1)/R37A/F41K (CON1) (ligand)
chain: PTS[pAMF]([DBCO‑triazole-mPEG 30 kDa])STKKTQLQLEHLLLDLQMILNGINNYKNPKLTAMLTKKFYMPKKATELKHLQCLEEELKPLEEVLNLAQSKNFHLRPRDLISNINVIVLELKGSETTFMCEYADETATIVEFLNRWITFSQSIISTLT
modifications: not fully specified (bridges)
notes: also called Des-A1_IL-2_S4pAMF(PEG1)/R37A/F41K/C124S
For B1, which “fold lower affinity than aldesleukin” value [1] is on record?
The value was 6 fold.

What about the “fold lower affinity than aldesleukin” value [2] of the same binder?
Its value is 6 fold.

And the “KD/KD (human)” value [3]?
Its value is 1.2 ratio.

What about the Kd [3] of the same binder?
The Kd was 5.4 µM.

What about the “KD/KD (human)” value [4] of the same binder?
Its value is 1 ratio.

What about the Kd [4] of the same binder?
The Kd was 4.4 µM.

And the “Kit225-STAT5 reporter, fold lower activity than aldesleukin” value [5]?
Its value is 5110 fold.

And the “CD25 knockout Kit225-STAT5 reporter, fold lower activity than aldesleukin” value [6]?
Its value is 24 fold.

What about the “pSTAT5 Treg Fold-change from wt, donor #1” value [7] of the same binder?
The value was 3620 fold.

What about the “pSTAT5 Treg Fold-change from wt, donor #2” value [7] of the same binder?
Its value is 2230 fold.

What about the “pSTAT5 Treg cells EC50, donor #1” value [7] of the same binder?
The value was 11.8 nM.

And the “pSTAT5 Treg cells EC50, donor #2” value [7]?
The value was 7.29 nM.

And the “pSTAT5 CTLs EC50, donor #1” value [8]?
Its value is 71.9 nM.

And the “pSTAT5 CTLs EC50, donor #2” value [8]?
Its value is 43 nM.

What about the “pSTAT5 CTLs Fold-change from wt, donor #1” value [8] of the same binder?
Its value is 25 fold.

What about the “pSTAT5 CTLs Fold-change from wt, donor #2” value [8] of the same binder?
Its value is 45 fold.
